Measurements from the nanobody polyreactivity screen of Harvey et al. (2022).

Experiment: yeast display, Sf9 membrane polyspecificity reagent, FACS + sequencing; frameworks hold sequencing errors
Method in brief: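 Galactose-induced (36–48 hours) yeast carrying a synthetic nanobody display library were exposed to 10% biotinylated, detergent-solubilized Sf9 membrane reagent at 4 °C for 1 hour. FACS followed streptavidin microbead enrichment, using low and high (top ~1%) gates for expression (anti-HA) and reagent binding (streptavidin). Colony PCR, MiSeq 2 × 250 sequencing and CDR-length filtering followed. Labels for polyreactivity reflect the gate of origin.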

| Sequence | polyreactivity (PSR sort gate) |
| --- | --- |
| QVQLVESGGGLVQAGGSLRLSCAASGRIFPVNAMGWYRQAPGKEREFVARISRRGGSTYYADSVKGRFTISRDNAKNTVYLQMNSLKPEDTAVYYCAAVSSRYSYDYWGQGTQVTVSS | high polyreactivity |
| QVQLVESGGGLVQAGGSLRLSCAASGRIFPVYAMGWYRQAPGNERELVAAITSGVGSTYYADSVKGRFTISRDNAKNTVYLQMNSLKPEDTAVYYCAADSSYLTYWEYDYWGQGTQVTVSS | low polyreactivity |
| QVQLVESGGGLVQAGGSLRLSCAASGRIFPWNAMGWYRQAPGKDRELVAAISFSAGRTYYADSVKGRFTISRDNAKNTVYLQMNSLKPEDTAVYYCNARIGSPWVWTGIIGYEYWGQGTQVTVSS | low polyreactivity |
| QVQLVESGGGLVQAGGSLRLSCAASGRIFPWNAMGWYRQAPGKERDLVAAISFSAGRTYYADSVKGRFTISRDNAKNTVYLQMNSLKPEDTAVYYCNARIGSRWVWTGIIGYEYWGQGTQVTVSS | low polyreactivity |
| QVQLVESGGGLVQAGGSLRLSCAASGRIFPWYAMGWYRQAPGKEREVVAAIRWRGGGTYYADSVKGRFTISRDNAKNTVYLQMNSLKPEDTAVYYCAARRPANGMGYWGQGTQVTVSS | high polyreactivity |
| QVQLVESGGGLVQAGGSLRLSCAASGRIFPYKDMGWSRQAHGKEMELVAGISYSGGSTYYADSVKGRFTISRDNAKNTVYLQMNSLKPEDTAVYYCARDYSRHKGDYWGQGTQVTVSS | low polyreactivity |
| QVQLVESGGGLVQAGGSLRLSCAASGRIFPYYAMGWYRQAPGKERELVAAITTRGGSTYYADSVKGRFTISRDNAKNTVYLQMNSLKPEDTAVYYCAAVTFGRMEYWGQGTQVTVSS | low polyreactivity |
| QVQLVESGGGLVQAGGSLRLSCAASGRIFPYYDMGWYREAPGKERELVAAITWNGGSTYYADSVKGRFTISRDNAKNTVYLQMNSLKPADTAVYYCAVEPYYYGEDYWGQGTQVTVSS | low polyreactivity |
| QVQLVESGGGLVQAGGSLRLSCAASGRIFPYYDMGWYRQAPGKERELVAAITWNGGSTYYADSVKGRFTISRDNAKNTVFLQMNSLKPEDSAVYYCAVEPYYYGEDYWGQGTQVTVSS | low polyreactivity |
| QVQLVESGGGLVQAGGSLRLSCAASGRIFQFYAMGWYRQAPGKERELVASISASGARTYYADSVKGRFTISRDNAKNTVYLQMNSLNPEDTAVYYCNVVYFDGNPEDYEYWGKGTQVTVSS | high polyreactivity |
| QVQLVESGGGLVQAGGSLRLSCAASGRIFQGNAMGWYRQAPGKERELVAAITTSGGSTYYADSVKGRFTISRDNAKNTVYLQMNSLKPEDTAVYYCNVDPRKRSYDYWGQGTQVTVSS | high polyreactivity |
| QVQLVESGGGLVQAGGSLRLSCAASGRIFQGNAMGWYRQAPRKERELVAAISWRGGRTYYADSVKGRFTISRAYAKNTVYLQMNSLKPEDTAVYYCAAKAYREDEGYWGQGTQVTVSS | high polyreactivity |
| QVQLVESGGGLVQAGGSLRLSCAASGRIFQGYAKGWYRQAPGKERELVAAIRTGGSTNYADSVKGRFTISRDNAKNTVYLQMNSLKPEDTAVYYCNAVGQLYFYFPRGDYWGQGTQVTVSS | low polyreactivity |
| QVQLVESGGGLVQAGGSLRLSCAASGRIFQGYAMGWYRKAPGKERELVAAIRSGSGSTYYADSVKGRFTISRDNAKNTVYLQMNSLKPEDTAVYYCAADRYYWGQGTQVTVSS | low polyreactivity |
| QVQLVESGGGLVQAGGSLRLSCAASGRIFQGYAMGWYRQAPGKEREFVAVISTSGGRTSYADSVKGRFTISRDNAKNTVYLQMNSLKPEDTAVYYCNALYGRYGWSKNYYWGQGTQVTVSS | high polyreactivity |
| QVQLVESGGGLVQAGGSLRLSCAASGRIFQKYAMGWYRQAPGKERELVAAISSGDSTYADSVKGRFTISRDNAKNTVYLQMNSLKPEDTAVYYCAVDLYDPWWYSYIGEYEYWGQGTQVTVSS | low polyreactivity |
| QVQLVESGGGLVQAGGSLRLSCAASGRIFQKYAMGWYRQAPGKERELVAAISSGDSTYADSVKGRFTISRDNAKNTVYLQMNSLKPEDTAVYYCNREVPESQGFITPDGYCGQGTQVTVSS | low polyreactivity |
| QVQLVESGGGLVQAGGSLRLSCAASGRIFQNNAMGWYRQAPGKERELVAAINIIDGVTYYADSVKGRFTISRDNAKNTVYLQMNSLKPEDTAVYYCNAVRRAHHRKYNYWGQGSQVTVSS | low polyreactivity |
| QVQLVESGGGLVQAGGSLRLSCAASGRIFQPNAMGWYRQAPGKERELVAAISSSGGRTYYADSVKGRFTISRDNAKNTVYLQMNSLKPEDSAVYYCNAGGYRYRSYDYWGQGTQVTVSS | high polyreactivity |
| QVQLVESGGGLVQAGGSLRLSCAASGRIFQPNAMGWYRQAPGKERELVAAISSSGGRTYYADSVKGRFTISRDNAKNTVYLQMYSLKPEDSAVYYCNAGGYRYRSYDYWGQGTQVTVSS | high polyreactivity |
| QVQLVESGGGLVQAGGSLRLSCAASGRIFQPNVMGWYRQAPGKERELVAAIRSGSSTYYADSVKGRFTISRDNAKNTVYLQMNSLKPEDTAVYYCATRRAGRGYDYWGQGTQVTVSS | high polyreactivity |
| QVQLVESGGGLVQAGGSLRLSCAASGRIFQRNAMGWYRQAPGKERELVAAITSTGVRTYYADSVKGRFTISRDNAKNTVYLQMNSLKPEDTAVYYCAVRGERRYIYAYWGQGTQVTVSS | high polyreactivity |

| Sequence | polyreactivity (PSR sort gate) |
| --- | --- |
| QVQLVESGGGLVQAGGSLRLSCAASGRIFQRNAMGWYRQAPGKVWELVAAITSTGVRTYYADSVKGRFTISRDNAKNTVYLQMNSLKPEDSAVYYCNAVGRRVRTWHDYDYWGQGTQVTVSS | high polyreactivity |
| QVQLVESGGGLVQAGGSLRLSCAASGRIFQRYAMGWYRQAPGKERELVAAISKNGGRTYYADSVKGRFTISRDNAKNTVYLQMNSLKPEDTAVYYCNKGTAGYEYAAFDYWGQGTQVTVSS | low polyreactivity |
| QVQLVESGGGLVQAGGSLRLSCAASGRIFQRYTMGWYRQAPGKEREFVAAITYSGGSTHYADSVKGRFTISRDNAKNTVYLQMNSLKPEDTAVYYCNADRYYGRGYGYWGQGTQVTVSS | low polyreactivity |
| QVQLVESGGGLVQAGGSLRLSCAASGRIFQVNAMGWYRQAPGKERELVAAITYSGGTTYYADSVKGRFTISRDNAKNTVYLQMNSLKPEDTAVYYCNAEYRWPYWGQWYFKGYDYWGQGTQVTVSS | low polyreactivity |
| QVQLVESGGGLVQAGGSLRLSCAASGRIFQWYTMGWYRQAPGKERELVATITDGGSTYYADSVKGRFTISRDNAKNTVYLQMNSLKPEDTAVYYCAARKIGSRRLLYPYYIFGYWGQGTQVTVSS | high polyreactivity |
| QVQLVESGGGLVQAGGSLRLSCAASGRIFQYYAMGWYRQAPGKEREFVAAISDSGSNTYYADSVKGRFTISCDKAKNTVYLQMNSLKPEDTAVSYCAALYATRALFYFWGQGTQVTVSS | low polyreactivity |
| QVQLVESGGGLVQAGGSLRLSCAASGRIFQYYAMGWYRQAPGKERELVAAISSSGGSTYYADSVKGRFTISRDNAKNTVYLQMNSLKPEDTAVYYCNADRNARQNRRDYWGQGTQVTVSS | high polyreactivity |
| QVQLVESGGGLVQAGGSLRLSCAASGRIFQYYAMGWYRQEPGKERELVAAISGSGGRTYYADSVKGRFTISRDNAKNTVYLQMNSLKPEDTAVYYCNAVYRYYPFDYWGQGTQVTVSS | high polyreactivity |
| QVQLVESGGGLVQAGGSLRLSCAASGRIFRAYAMGWYRQAPGKERELVADIRGGGSTNYADSVKGRFTISRDNAKNTVYLQMNSLKPEDTAVYYCNAAAYRGMRQGPRYYYWGQGTQVTVSS | high polyreactivity |
| QVQLVESGGGLVQAGGSLRLSCAASGRIFRFYAMGWYRQAPGKERELVAAISSRGGSTYYADSVKGRFTISRDNAKNTVYLQMNSLKPEDTAVYYCNAYGSTSQMDYWGQGTQVTVSS | high polyreactivity |
| QVQLVESGGGLVQAGGSLRLSCAASGRIFRFYAMGWYRQAPGKERELVAVISTGGRTYYADSVKGRFTISRDNAKNTVYLQMNSLKPEDTAVYYCAAEYTTIGRYDGWHYNYWGQGTQVTVSS | high polyreactivity |
| QVQLVESGGGLVQAGGSLRLSCAASGRIFRFYTMAWYRQAPGKERELVAAITQRGGRTYYADSVKGRFTISRDNAKNTVYLLMNSLKPEDTAVFYCAATTTVAEYDYWGQGTQVTVSS | high polyreactivity |
| QVQLVESGGGLVQAGGSLRLSCAASGRIFRGNAMGWYRQAPGKERELVAAISNSGGRTYYADSVKGRFTISRDNAKNTVYVQMTSLKPEDTAVYYCNAVTYSRRYAYYYWGQGTQVTVSS | high polyreactivity |
| QVQLVESGGGLVQAGGSLRLSCAASGRIFRGNTMGWYRQAPGKERELVAAITRGGSTSYADSVKGRFTISRDNAKNTVYLQMNSLKPEDTAVYYCATRTHGEGTRRDSWGQGTQVTVSS | low polyreactivity |
| QVQLVESGGGLVQAGGSLRLSCAASGRIFRGSAMGWYRQAPGKERELVATINASGGTTYYADSVKGRFTISRDNAKNTVYLQMNSLKPEDTAVYYCNARFRRFFSGYGYWGQGTQVTVSS | high polyreactivity |
| QVQLVESGGGLVQAGGSLRLSCAASGRIFRGYAMGSYRQETGKETELVAAISRSGGSTYYADSVKGRFTISRDNAKNTVYLQMNILKPEDTAVYYCNTKYVRYYRRYDSWGQGTQVTVSS | high polyreactivity |
| QVQLVESGGGLVQAGGSLRLSCAASGRIFRGYAMGWYRQAPGKERELVAAINSGGDTYYADSVKGRFTISRDNAKNTVYLQMNSLKPEDTAVYYCAAAWWDYGNGKYDYWGQGTQVTVSS | low polyreactivity |
| QVQLVESGGGLVQAGGSLRLSCAASGRIFRGYAMGWYRQAPGKERELVAAISSGVSTNYADSVKGRFTISRDNAKNTVYLQKNSLKPVDTAVYYCAAYFYSPYGTAGKYRRRYNYWGQGTQVTVSS | high polyreactivity |
| QVQLVESGGGLVQAGGSLRLSCAASGRIFRGYAMGWYRQAPGKERELVATISAIGGSTYADSVKGRFTISRDNAKNTVYLQRNSLKPEDTAVYYCNVRKVYRYQYRFEYWGQGTQVTVSS | high polyreactivity |
| QVQLVESGGGLVQAGGSLRLSCAASGRIFRGYAMGWYRQAPWKERELVAAISRSGGSTYYADSVKGRFTISRDNAKNTVYLQMNSLKPVDTAVYYCAAYTYSAGGYWGQGSQVTVSS | high polyreactivity |
| QVQLVESGGGLVQAGGSLRLSCAASGRIFRGYAMGWYRQPPGTERELVAAITKRGGSTYYADSVKGRFTISRDNEKNTVSLQMNSLKPEDTAVYYCAAYLPGWELREYGYWGQGTQVTVSS | high polyreactivity |
